Laboratory results from patent US8030017B2, “Thermostable luciferases and methods of production” (Promega Corporation, priority 1997, dated 2011).

Experiments:
[1] = Michaelis-Menten constant for luciferin of purified mutants; type: biochemical; conditions: purified enzyme
Text: (§1) Substrate binding was screened by measuring an apparent composite Km (see Example 2) for luciferin and ATP. […] The Km for luciferin rose while the Km for ATP declined (Table 3). The reason for this change is unknown, although it can be speculated that more efficient release of oxyluciferin or luciferin inhibitors could lead to more rapid enzyme turnover.
(§2) Protein purification: Four mutants that are described herein (Luc[T249M], Luc49-7C6, Luc78-0B10, and Luc90-1B5) were purified using a previously published procedure (Hastings et al., 1996).

[2] = Thermostability (half-life, retained activity) of luciferases incubated in aqueous solution at different temperatures; type: physicochemical; conditions: for loss in activity: aqueous solution
Text: As defined herein, a “thermostable” enzyme, e.g., a luciferase, or an enzyme which has “thermostability”, is an enzyme which under certain conditions, e.g., at certain temperature, in aqueous solution and/or for certain periods of time, has an increased retention of activity relative to a reference enzyme. For example, for a thermostable luciferase, a reference luciferase may be native wild-type luciferase or recombinant wild-type luciferase. Preferably, for beetle luciferases, the activity is luminescence under conditions of saturation with luciferin and ATP. One measure of thermostability of an enzyme is the half-life of the enzyme in an aqueous solution (the time over which 50% of the activity is lost) at a stated temperature.
as §2
[…] Enzyme stability was determined from diluted proteins incubated at different temperatures, and aliquots were removed at different time points. A linear regression of the natural log of the luminescence and time was calculated. Half-life was calculated as the 1n(0.5)/slope of the regression.

[3] = Robotic quantitative screen of E. coli lysates: enzyme stability (tau) at elevated temperature; type: physicochemical; conditions: relative value; Control is Luc85-4F12 at 65° C. (=1)
Description: Two white assay plates (Labsystems #9502887) are obtained from the plate feeder and placed in the pipetter. The incubation plate from the shaker is placed in the pipetter, and the lid removed and placed on the nearby locator. Two daughter plates are made using the pipetting procedure (see “Create Pair of Daughter Plates from Incubation Plate”). Afterwards, the lid is replaced on the parent plate, and the plate is placed in a high temperature incubator. [ranging from 31° C. to about 65° C. depending on the clone.]
To begin the second set of measurements, the plate from the high temperature incubator is placed in the shaker to mix.
In the final set of measurements, the plate from the high temperature incubator is again placed in the shaker to mix.
(§3) The following criteria were used for screening purposes. The temperature chosen for the enzyme stability parameter was such that the parent enzyme would decay 100 to 1000 fold over 10 hours (see Table 1). Criteria 1 is achieved manually; data for criteria 2-6 is generated by robotic analysis. For all criteria, the maximum value as described is selected. • 1. In vivo screen. The brightest clones are selected at a given temperature. • 2. Expression/specific activity. The value for normalized luminescence is calculated as the ratio of luminescence to optical density. The value is reported as the ratio with the reference value. • 3. Enzyme stability. Measurements of normalized luminescence of the incubated samples (3 taken over about 15 hours) are fitted to In(L)=In(L0)−(t/τ), where L is normalized luminescence and t is time. τ is a measure of the enzyme stability. The value is reported as the ratio with the reference value, and the correlation coefficients are calculated. • 4. Substrate binding. Measurements of normalized luminescence with 1X and 0.02X are taken at the initial reading set, and 1X and 0.06X are taken at the 5 hour set. The ratio of the 0.02X:1X and 0.06X:1X gives the relative luminescence at 0.02X and 0.06X concentrations. These values, along with the relative luminescence at 1X (i.e., 1), are fitted to a Lineweaver-Burk plot to yield the Km:app,total for the substrates ATP, luciferin, and CoA. The values are reported as the inverse ratio with the reference value, and the correlation coefficients are calculated. • 5. Signal stability. The luminescence of the initial IX luminescent reactions are re-measured 3 additional times over about 15 hours. These values are fitted to In(L)=In(L0)−(t/τ) and the integral over t (15 hours) is calculated. Signal stability is then calculated as S=(1−int(L)/L0t)^2. The values are reported as the inverse ratio with the reference value, and the correlation coefficients are calculated. • 6. Composite fitness. The values of criteria 2 through 5 are combined into a single composite value of fitness (or commercial utility). This value is based on a judgment of the relative importance of the other criteria. This judgment is given below:
Calculate enzyme stability (τ): For each sample, use linear regression to fit In(L1x)=In(L0)−(t/τ) using the three luminescence measurements with 1X substrate concentrations (Plates 1, 5, 8). Also calculate the regression coefficient.
Calculate the reference-normalized values: For the criteria parameter of each sample, a reference-normalized value is determined by calculating the ratio or inverse ratio with the respective reference value. The reference-normalized values are Li/Lir, τ/τr, Kmr/Km:app,total, and Sr/S, where reference values are calculated from the equations of the appropriate reference surface.
“Enzyme stability” was determined by the rate of activity loss from cell lysates over 10 hours. In successive rounds of evolution the incubation temperature of the lysates was increased.
Robotic Automation: Robotic automation was used in the quantitative screens to accurately perform the large number of required quantitative assays on the cultured cells. […]

[4] = Robotic quantitative screen of E. coli lysates: luminescence activity (Li), expression/specific activity; type: biochemical; conditions: relative value; Control is Luc85-4F12 at 65° C. (=1)
Description: A plate containing cells is retrieved from the carousel and placed on the shaker for 3-5 minutes to fully mix the cells. The cells tend to settle from solution upon standing.
To measure Optical Density (O.D.), the plate is moved from the shaker to the locator near the luminometer; the lid is removed and the plate placed into the luminometer. The O.D. is measured using a 620 nm filter.
To prepare a cell lysate, the plate of cells is first retrieved from the refrigerator and mixed on the shaker to resuspend the cells. A new plate from the carousel without a lid is placed in the reagent dispenser and 20 μl of Buffer A is added to each well. This is placed in the pipetting station.
The plate is then moved to the reagent dispenser to add 175 μl of Buffer B, and then mixed on the shaker for about 15 minutes or more. The combination of the freeze/thaw and Buffer B will cause the cells to lyse.
One daughter plate is placed in the luminometer and the 1X assay method is used. After the assay, the plate is placed in the ambient incubator, and the second daughter plate is placed in the luminometer. For the second plate, the 0.02X assay method is used. This plate is discarded, and the first plate is returned from the incubator to the luminometer. The repeat assay method is used (i.e., no reagent is injected). Afterwards, the plate is again returned to the ambient incubator.
1X Assay reagent: 5 μM Luciferin; 175 μM ATP; 20 mM Tricine, pH 8.0; 0.1 mM EDTA
as §3
Normalize luminescence data: For each measurement of luminescence in the eight daughter plates, the normalized luminescence is calculated by dividing the relative light units by the optical density of the original plate. […]

[5] = Michaelis-Menten constant for ATP of purified mutants; type: biochemical; conditions: purified enzyme
Text: as §1, §2

B1: Luc90-1B5: mutant luciferase, SEQ ID NO:24 (protein)
chain: MADKNILYGPEPFYPLEDGTAGEQMFDALSRYADIPGCIALTNAHTKENVLYEEFLKLSCRLAESFKKYGLKQNDTIAVCSENGLQFFLPVIASLYLGIIVAPVNDKYIERELIHSLGIVKPRIVFCSKNTFQKVLNVKSKLKSIETIIILDLNEDLGGYQCLNNFISQNSDSNLDVKKFKPYSFNRDDQVALIMFSSGTTGLPKGVMLTHKNIVARFSLAKDPTFGNAINPTTAILTVIPFHHGFGMMTTLGYFTCGFRVVLMHTFEEKLFLQSLQDYKVESTLLVPTLMAFLAKSALVEKYDLSHLKEIASGGAPLSKEIGEMVKKRFKLNFVRQGYGLTETTSAVLITPKGDAKPGSTGKIVPFHAVKVVDPTTGKILGPNEPGELYFKGPMIMKGYYNNEEATKAIIDNDGWLRSGDIAYYDNDGHFYIVDRLKSLIKYKGYQVAPAEIEGILLQHPYIVDAGVTGIPDEAAGELPAAGVVVQTGKYLNEQIVQDYVASQVSTAKWLRGGVKFLDEIPKGSTGKIDRKVLRQMFEKHTNG
modifications: Mutant luciferase
- Km [1]: 2.2 µM
- increased thermostability compared to LucPpe2 [T249M] [2]: about 35 °C
- stability ([2]; 22° C. over several weeks, pH 6.5 (FIG. 16B)): stable
- activity loss ([2]; 65° C. over several hours, citrate buffer at pH 6.5 (FIG. 16A)): very little activity loss
- half-life ([2]; 65° C., same buffer conditions as Table 2 (FIG. 16A)): 27 h
- activity maintained ([2]; after 120 hours (5 days) at 50° C., 25 mol/L citrate pH 6.5, 150 mmol/L NaCl, 1 mg/mL BSA, 0.1 mmol/L EDTA, 5% glycerol): 75%
- loss in activity ([2]; 2 hours at 50° C.): 5%
- loss in activity ([2]; 5 hours at 65° C.): 5%
- loss in activity ([2]; over 6 weeks at 22° C.): 5%
- Enzyme stability (tau) [3]: 1.1154
- Luminescence (Li) [4]: 1.4743
- Km [5]: 3 µM
